We go through two molecules from patent publication US20040223970A1 (published 2004).

This assay addresses T1, SLC15A2 (Solute carrier family 15 (H+/peptide transporter), member 2) (human, UniProt Q16348 1-729).
T1 construct: Expressed from its cDNA on stably transfected 3T12 and Calu6 cells (FACS, saporin killing), and endogenous in human prostate sections (IHC); also called SLC15A2 protein; SLCA15A2
T1 sequence: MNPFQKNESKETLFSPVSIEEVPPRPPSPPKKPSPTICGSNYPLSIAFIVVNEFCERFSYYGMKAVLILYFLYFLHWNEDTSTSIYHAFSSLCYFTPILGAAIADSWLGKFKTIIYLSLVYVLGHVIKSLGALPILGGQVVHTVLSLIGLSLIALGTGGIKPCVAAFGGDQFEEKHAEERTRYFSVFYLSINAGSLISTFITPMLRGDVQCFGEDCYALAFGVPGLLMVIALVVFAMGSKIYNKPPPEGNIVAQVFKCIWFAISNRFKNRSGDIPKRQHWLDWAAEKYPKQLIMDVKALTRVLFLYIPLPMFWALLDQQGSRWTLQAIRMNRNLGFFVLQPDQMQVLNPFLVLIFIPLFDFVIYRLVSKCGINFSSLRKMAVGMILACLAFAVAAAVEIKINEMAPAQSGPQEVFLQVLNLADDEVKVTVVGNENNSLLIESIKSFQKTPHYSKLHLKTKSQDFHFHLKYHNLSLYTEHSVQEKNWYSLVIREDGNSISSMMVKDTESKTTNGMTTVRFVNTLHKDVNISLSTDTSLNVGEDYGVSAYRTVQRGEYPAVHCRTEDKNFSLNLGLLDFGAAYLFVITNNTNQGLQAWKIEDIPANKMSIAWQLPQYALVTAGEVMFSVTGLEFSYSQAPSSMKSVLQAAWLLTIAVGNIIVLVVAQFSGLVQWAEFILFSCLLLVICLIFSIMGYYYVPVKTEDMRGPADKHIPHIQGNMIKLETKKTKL
Briefly: FACS, hybridoma supernatant on SLC15A2 expressing cells.

B1: PDO5 #811 monoclonal antibody (antibody, V domains shown)
VH: QVQLQQPGAELVRPGASVKLSCKASGYTFTSYWLNWVRQRPGQGLEWIGMIDPSDSETHYNQMFKDKATLTVDKSSSTAYMQLSSLTSEDSAVYYCTSQGVPVPFDYWGQGTTLTVSS
VL: DVVMTQTPLSLPVSLGDQASISCRSSQSLVHSNGNTYLHWYLQKPGQSPKLLIYRVSNRFSGVPDRFSGSGSGTDFTLKISRVEAEDLGVYFCSQSTHVPWTFGGGTKLEIKR
notes: Mouse monoclonal antibody from a hybridoma, used as hybridoma supernatant; also called clone 811
For B1, the binding result is “binds”.

B2: PDO5 #810 monoclonal antibody (antibody, V domains shown)
VH: EVQLQQSGPELVKPGASMKISCKASGYSFTGYTMNWVKQSHGKNLEWIGLINPYNGGINYNQKFKGKATLTVDKSSSTAYMELLSLTSEDSAVYYCTRRAYYGNYGTMDYWGQGTSVTVSS
VL: ENVLTQSPASMSASPGEKVTMTCSASSSVSYMHWYQQKSTTSPKLWIYDTSNLASGVPGRFSGSGSGNSYSLTISNMEAEDVATYYCFQGSGYPLTFGAGTKLELKR
notes: also called clone 810; Clone 810 supernatant
For B2, the binding result is “binds”.
